Test results taken from US20040028607A1.

Biological target: monoacetylated histone H3 peptide …(AcK)APRKQL, acetylated on lysine-14
Assay: cell-based or functional assay

Chain of monoacetylated histone H3 peptide …(AcK)APRKQL, acetylated on lysine-14 (peptide, as listed by the source): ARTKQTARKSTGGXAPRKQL

Row | Km, deacetylation of acetylated H3 peptide, charcoal-binding assay | V/K, deacetylation of acetylated H3 peptide, charcoal-binding assay | Substance
1 | 54.2 µM | 3930 M⁻¹ s⁻¹ | recombinant human SIRT2 (6xHis-tagged, with factor Xa cleavage site, purified from E. coli) (from UniProt Q8IXJ6 1-389) (enzyme)
2 | 0.28 µM | 718000 M⁻¹ s⁻¹ | recombinant yeast Hst2p (from UniProt P53686 1-357) (enzyme)
